According to patent US20110124556 (published 2011):
Non-standard residues stand in square brackets, D forms with d. No end group written: not given here. *: point of attachment. Biotin = O=C1N[C@H]2[C@H](CS[C@H]2CCCCC(=O)*)N1; Bpa = N[C@@H](Cc1ccc(C(=O)c2ccccc2)cc1)C(=O)O

B1: S217 (peptide)
chain 1: SDGFYNAIELLS
chain 2: SDGFYNAIELLS
B2: S233 (peptide)
chain 1: FHENFYDWFVRQVSKKX
chain 2: SDGFYNAIELLSX
modifications: listing feature
B3: S440 (peptide)
chain 1: ESFYDWFERQLGGGGK
chain 2: EWAWVQCEVYGRGCPS
B4: S255 (peptide)
chain 1: SDGFYNAIELLSGGGX
chain 2: SDGFYNAIELLSGGGX
modifications: listing feature
B5: S546 (peptide)
chain 1: SLEEEWAQVECEV
chain 2: [Bpa]GRGCPSGSLDESFYDWFERQ[Bpa]GK(Biotin)
modifications: not fully specified (bridges); cysteine pairing not given here; also: chains 1 and 2 form one continuous chain
B6: S563 (peptide)
chain 1: SLEEEWAQIQCEVWG
chain 2: R[dN][dC]SESFYDWFERQL
modifications: cysteine pairing not given here
B7: S252 (peptide)
chain 1: SDGFYNAIELLSX
chain 2: SDGFYNAIELLSX
modifications: listing feature
B8: RB517 (protein)
chain: DYKDDDDKHLCVLEELFWGASLFGYCSGGGSGGSHLCVLEELFWGASLFGYCSGAAAGAPVPYPDPLEPRAA
B9: 539 (D8-6aa-RP9) (protein)
chain: MADYKDDDDKWLDQEWAWVQCEVYGRGCPSGGSGGSGSLDESFYDWFERQLGKKAAAGAPVPYPDPLEPRPG
B10: S414 (peptide)
chain 1: ESFYDWFERQLGKX
chain 2: ESFYDWFERQLGKX
modifications: not fully specified; listing feature
B11: S374 (peptide)
chain 1: XGSLDESFYDWFERQLGKK
chain 2: XGSLDESFYDWFERQLGKK
modifications: not fully specified; listing feature
B12: S415 (peptide)
chain 1: ESFYDWFERQLGKX
chain 2: ESFYDWFERQLGKX
modifications: listing feature

What follows are binders tested against T1, human insulin receptor (HIR) (human, UniProt P06213) (assay: competition).
HHHHHHKLDQEWAWVQCEVYGRGCPSESFYDWFERQLG [S481] showed a Kd of 1.3 nM. Binder B1 has a Kd of 3900 nM. For HDPFYSMMKSLLK [S120], the Kd was 20 nM. B2 gave a Kd of 260 nM. SIEEEWAQIKCDVWGRGCPSESFYDWFERQL [S517] was tested, and the Kd was 0.006 nM. Binder TGHRLGLDEQFYWWFRDALSG [S265] has a Kd of 110 nM. Work on HETFYSMIRSLAK [S117] yielded a Kd of 27 nM. For FHENFYDWAVRQVSKK [S223], the Kd was > 2000 nM. Binder B3 has a Kd of 99 nM. For B4, the Kd was 16 nM. With B5 the Kd was 26 nM. Work on PLRESRNFYDWFVQQLE [S366] yielded a Kd of 370 nM. Binder LDQEWAWVQSEVYGRGSPSESFYDWFERQL [S509] has a Kd of 5.7 nM. Work on SLEEEWAQIECEVWGRGCSGSLDESFYDWFERQL [S561] yielded a Kd of 0.018 nM. QLEEEWAGVQCEVYGRECPS [S226] showed a Kd of 16000 nM. For ANFYDWFVAELG [S242], the Kd was 20000 nM. In the case of IQGWEPFYGWFDDVVAQMFEE [S264], the Kd is reported as 190 nM. Binder B6 has a Kd of 0.014 nM. Binder SLEEEWAWVECEVYGRGCPSGSLDESFYDWFERQL [S532] has a Kd of 0.037 nM. Work on LAQEWAWVQCEVYGRGCPSESFYDWFERQL [S495] yielded a Kd of 2.6 nM. For PLCFLQELFGGASLGGYCSG [S262], the Kd was 19000 nM. B7 was tested, and the Kd was 440 nM. SGSLDESFYDWFERQLGKK [S372] was tested, and the Kd was 200 nM.

Target: T1, human insulin receptor (HIR)
Assay: competition
Remark: another data set of the same source
With B8 the Kd was 60 nM. With B9 the Kd was 0.7 nM. MADYKDDDDKWLDQEWAWVQCEVYGRGCPSAAAGAPVPYPDPLEPRPG [RB540 (D8)] was tested, and the Kd was ~100 nM.

What follows are binders tested against sIR (human, UniProt P06213) (assay: FP).
B10 gave an IC50 of 0.2 nM.

Target: T1, human insulin receptor (HIR)
Assay: competition
Remark: another data set of the same source
B11 gave a Kd of 180 nM. GSLDESFYDWFERQLGKK [S371 (RP9)] showed a Kd of 830 nM.

Target: T1, human insulin receptor (HIR)
Assay: competition
Remark: another data set of the same source
With FHENFYDWFVQRVSKK [H2C (D117)] the IC50 was 700 nM.

The binders below were run against sIR-Fc (human, UniProt P06213) (assay: competition, TR-FRET vs b-RP9).
B10 was tested, and the IC50 was 184 nM.

Target: T1, human insulin receptor (HIR)
Assay: competition
Remark: another data set of the same source
B12 showed a Kd of 100 nM.
